Laboratory results from article PMC9123286 (The Journal of Cell Biology, 2022).

T1: Get3 D57E-TEV-GFP (S. cerevisiae, UniProt Q12154 1-354, D57E)
T1 construct: Get3, cytosolic ATPase of the GET pathway, S. cerevisiae; ATPase-impaired client trap variant D57E; Captured on anti-GFP beads and eluted by TEV cleavage; the oligomeric state in the lysate was not measured; also called Get3 DE; Get3 D57E (DE); source: yeast (BY4741 background), ectopically expressed, in lysate made without detergent; not shown: TEV site-GFP, C-terminal, kept
T1 sequence (looked up): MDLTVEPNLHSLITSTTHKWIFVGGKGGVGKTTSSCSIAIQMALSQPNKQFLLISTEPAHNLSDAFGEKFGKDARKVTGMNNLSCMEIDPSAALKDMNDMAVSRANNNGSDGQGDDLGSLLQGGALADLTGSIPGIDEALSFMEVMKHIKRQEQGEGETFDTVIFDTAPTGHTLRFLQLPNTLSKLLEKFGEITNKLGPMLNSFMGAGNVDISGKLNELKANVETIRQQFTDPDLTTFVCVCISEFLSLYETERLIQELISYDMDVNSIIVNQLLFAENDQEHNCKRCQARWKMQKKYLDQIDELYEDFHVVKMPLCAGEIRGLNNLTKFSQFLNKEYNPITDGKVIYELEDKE


Experiments:
Get3 D57E-TEV-GFP [1] = target: T1, Get3 D57E-TEV-GFP; test: co-IP; lysates from Δget3 cells ectopically expressing Get3 DE-TEV-GFP and HA-tagged Erg1 full length, ΔC, Δα1 or Δα2; anti-GFP MicroBeads, no detergent, TEV elution; immunoblot, signal normalised to Get3 in the eluate and to the input
Get3 D57E-TEV-GFP [2] = target: T1, Get3 D57E-TEV-GFP; test: co-IP; lysates from cells expressing HA–Erg1 (endogenous promoter) and Get3 DE–TEV–GFP or Get3 DE FIDD–TEV–GFP; anti-GFP MicroBeads, no detergent, TEV elution; immunoblot, signal normalised to Get3 in the eluate and to the input; settings: partners not purified

percent reduction of Get3 binding against full-length HA–Erg1 (Get3 D57E-TEV-GFP [1]) | fold enrichment against Get3 DE FIDD (Get3 D57E-TEV-GFP [2]) | Molecule
95% | – | N-terminally HA-tagged Erg1 lacking the second predicted helix of the C-terminal hairpin (Δα2) (from UniProt P32476 1-496) (enzyme)
– | 5 fold | N-terminally HA-tagged Erg1 (full length) (enzyme, S. cerevisiae, UniProt P32476 1-496, looked up, Erg1, squalene monooxygenase, S. cerevisiae; also called HA–Erg1; source: yeast, expressed from the endogenous ERG1 promoter (genomic) or ectopically in Δget3 cells, in lysate; not shown: HA, N-terminal, kept) MSAVNVAPELINADNTITYDAIVIGAGVIGPCVATGLARKGKKVLIVERDWAMPDRIVGELMQPGGVRALRSLGMIQSINNIEAYPVTGYTVFFNGEQVDIPYPYKADIPKVEKLKDLVKDGNDKVLEDSTIHIKDYEDDERERGVAFVHGRFLNNLRNITAQEPNVTRVQGNCIEILKDEKNEVVGAKVDIDGRGKVEFKAHLTFICDGIFSRFRKELHPDHVPTVGSSFVGMSLFNAKNPAPMHGHVILGSDHMPILVYQISPEETRILCAYNSPKVPADIKSWMIKDVQPFIPKSLRPSFDEAVSQGKFRAMPNSYLPARQNDVTGMCVIGDALNMRHPLTGGGMTVGLHDVVLLIKKIGDLDFSDREKVLDELLDYHFERKSYDSVINVLSVALYSLFAADSDNLKALQKGCFKYFQRGGDCVNKPVEFLSGVLPKPLQLTRVFFAVAFYTIYLNMEERGFLGLPMALLEGIMILITAIRVFTPFLFGELIG
